Data as given in article PMC10758103.

Target: T1, p32 stably overexpressed from lentiviral pCDH-p32, Q07021
T1 chain: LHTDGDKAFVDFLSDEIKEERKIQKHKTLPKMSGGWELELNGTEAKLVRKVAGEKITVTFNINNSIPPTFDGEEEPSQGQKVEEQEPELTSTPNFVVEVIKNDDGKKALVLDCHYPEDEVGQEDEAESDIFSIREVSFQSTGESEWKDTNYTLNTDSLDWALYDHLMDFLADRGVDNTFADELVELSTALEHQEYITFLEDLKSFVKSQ
Test: cross-linking; 786-O-pCDH and 786-O-p32 cells treated with gradients of elesclomol and CuSO4; 0.1 mM disuccinimidyl suberate (DSS) on cells, 30 minutes at room temperature, quenched with 50 mM Tris; 8% SDS-PAGE and western blot
Conditions: remark: other sources report otherwise

B1: p32 stably overexpressed from lentiviral pCDH-p32, Q07021 74-282 (natural protein)
chain: LHTDGDKAFVDFLSDEIKEERKIQKHKTLPKMSGGWELELNGTEAKLVRKVAGEKITVTFNINNSIPPTFDGEEEPSQGQKVEEQEPELTSTPNFVVEVIKNDDGKKALVLDCHYPEDEVGQEDEAESDIFSIREVSFQSTGESEWKDTNYTLNTDSLDWALYDHLMDFLADRGVDNTFADELVELSTALEHQEYITFLEDLKSFVKSQ
  stoichiometry N: 2
